Our source for the Kd values is paper PMC10786891, “Massively parallel profiling of RNA-targeting CRISPR-Cas13d”.

To fix the notation:
B1: target 1 insG 3' of 18,insA 3' of 5 (mixed)
RNA 1: CACCCGUGCAAAAAUGCAGGGGUCUAAAACUGAGCGGAUAACCUCUCUAUGG
RNA 2: GGGAAUGGAUCCACAUCUACGAAUUCGUACCAUAGGAGAGGUUAUCCGACUCACCGAGAUCGGAAGAGCACACGU
B2: target 1 C6U,C21A (mixed)
RNA 1: CACCCGUGCAAAAAUGCAGGGGUCUAAAACUGAGCGGAUAACCUCUCUAUGG
RNA 2: GGGAAUGGAUCCACAUCUACGAAUUCGUACAAUAGAGAGGUUAUCUGCUCACCGAGAUCGGAAGAGCACACGU
B3: target 2 MT 5'PFS GAA 3'PFS ACU (mixed)
RNA 1: CACCCGUGCAAAAUUGCAGGGGUCUAAAACCUUCUCCAAAUUGUUUCAUCCU
RNA 2: GGGAAUGGAUCCACAUCUACGAAUUCGAAAGGAUGAAACAAUUUGGAGAAGACUAGAUCGGAAGAGCACACGU
B4: target 2 MT 5'PFS GGG 3'PFS UGU (mixed)
RNA 1: CACCCGUGCAAAAUUGCAGGGGUCUAAAACCUUCUCCAAAUUGUUUCAUCCU
RNA 2: GGGAAUGGAUCCACAUCUACGAAUUCGGGAGGAUGAAACAAUUUGGAGAAGUGUAGAUCGGAAGAGCACACGU
B5: target 2 MT 5'PFS AGG 3'PFS CAA (mixed)
RNA 1: CACCCGUGCAAAAUUGCAGGGGUCUAAAACCUUCUCCAAAUUGUUUCAUCCU
RNA 2: GGGAAUGGAUCCACAUCUACGAAUUCAGGAGGAUGAAACAAUUUGGAGAAGCAAAGAUCGGAAGAGCACACGU
B6: target 2 MT 5'PFS UGA 3'PFS CGA (mixed)
RNA 1: CACCCGUGCAAAAUUGCAGGGGUCUAAAACCUUCUCCAAAUUGUUUCAUCCU
RNA 2: GGGAAUGGAUCCACAUCUACGAAUUCUGAAGGAUGAAACAAUUUGGAGAAGCGAAGAUCGGAAGAGCACACGU
B7: target 2 MT 5'PFS UUA 3'PFS ACC (mixed)
RNA 1: CACCCGUGCAAAAUUGCAGGGGUCUAAAACCUUCUCCAAAUUGUUUCAUCCU
RNA 2: GGGAAUGGAUCCACAUCUACGAAUUCUUAAGGAUGAAACAAUUUGGAGAAGACCAGAUCGGAAGAGCACACGU
B8: target 2 MT 5'PFS UAC 3'PFS UCC (mixed)
RNA 1: CACCCGUGCAAAAUUGCAGGGGUCUAAAACCUUCUCCAAAUUGUUUCAUCCU
RNA 2: GGGAAUGGAUCCACAUCUACGAAUUCUACAGGAUGAAACAAUUUGGAGAAGUCCAGAUCGGAAGAGCACACGU
B9: target 2 MT 5'PFS UGG 3'PFS CUU (mixed)
RNA 1: CACCCGUGCAAAAUUGCAGGGGUCUAAAACCUUCUCCAAAUUGUUUCAUCCU
RNA 2: GGGAAUGGAUCCACAUCUACGAAUUCUGGAGGAUGAAACAAUUUGGAGAAGCUUAGAUCGGAAGAGCACACGU
B10: target 2 MT 5'PFS GUA 3'PFS CAC (mixed)
RNA 1: CACCCGUGCAAAAUUGCAGGGGUCUAAAACCUUCUCCAAAUUGUUUCAUCCU
RNA 2: GGGAAUGGAUCCACAUCUACGAAUUCGUAAGGAUGAAACAAUUUGGAGAAGCACAGAUCGGAAGAGCACACGU
B11: target 2 MT 5'PFS UAC 3'PFS UCA (mixed)
RNA 1: CACCCGUGCAAAAUUGCAGGGGUCUAAAACCUUCUCCAAAUUGUUUCAUCCU
RNA 2: GGGAAUGGAUCCACAUCUACGAAUUCUACAGGAUGAAACAAUUUGGAGAAGUCAAGAUCGGAAGAGCACACGU
B12: target 2 MT 5'PFS CGC 3'PFS UGU (mixed)
RNA 1: CACCCGUGCAAAAUUGCAGGGGUCUAAAACCUUCUCCAAAUUGUUUCAUCCU
RNA 2: GGGAAUGGAUCCACAUCUACGAAUUCCGCAGGAUGAAACAAUUUGGAGAAGUGUAGAUCGGAAGAGCACACGU
B13: target 2 MT 5'PFS UAU 3'PFS UAA (mixed)
RNA 1: CACCCGUGCAAAAUUGCAGGGGUCUAAAACCUUCUCCAAAUUGUUUCAUCCU
RNA 2: GGGAAUGGAUCCACAUCUACGAAUUCUAUAGGAUGAAACAAUUUGGAGAAGUAAAGAUCGGAAGAGCACACGU
B14: target 2 MT 5'PFS UAU 3'PFS UAC (mixed)
RNA 1: CACCCGUGCAAAAUUGCAGGGGUCUAAAACCUUCUCCAAAUUGUUUCAUCCU
RNA 2: GGGAAUGGAUCCACAUCUACGAAUUCUAUAGGAUGAAACAAUUUGGAGAAGUACAGAUCGGAAGAGCACACGU
B15: target 2 MT 5'PFS GGG 3'PFS UGC (mixed)
RNA 1: CACCCGUGCAAAAUUGCAGGGGUCUAAAACCUUCUCCAAAUUGUUUCAUCCU
RNA 2: GGGAAUGGAUCCACAUCUACGAAUUCGGGAGGAUGAAACAAUUUGGAGAAGUGCAGAUCGGAAGAGCACACGU
B16: target 2 MT 5'PFS UGG 3'PFS CUA (mixed)
RNA 1: CACCCGUGCAAAAUUGCAGGGGUCUAAAACCUUCUCCAAAUUGUUUCAUCCU
RNA 2: GGGAAUGGAUCCACAUCUACGAAUUCUGGAGGAUGAAACAAUUUGGAGAAGCUAAGAUCGGAAGAGCACACGU
B17: target 2 MT 5'PFS GAU 3'PFS CCG (mixed)
RNA 1: CACCCGUGCAAAAUUGCAGGGGUCUAAAACCUUCUCCAAAUUGUUUCAUCCU
RNA 2: GGGAAUGGAUCCACAUCUACGAAUUCGAUAGGAUGAAACAAUUUGGAGAAGCCGAGAUCGGAAGAGCACACGU
B18: target 2 MT 5'PFS UGC 3'PFS CAA (mixed)
RNA 1: CACCCGUGCAAAAUUGCAGGGGUCUAAAACCUUCUCCAAAUUGUUUCAUCCU
RNA 2: GGGAAUGGAUCCACAUCUACGAAUUCUGCAGGAUGAAACAAUUUGGAGAAGCAAAGAUCGGAAGAGCACACGU
B19: target 2 MT 5'PFS UGA 3'PFS CGC (mixed)
RNA 1: CACCCGUGCAAAAUUGCAGGGGUCUAAAACCUUCUCCAAAUUGUUUCAUCCU
RNA 2: GGGAAUGGAUCCACAUCUACGAAUUCUGAAGGAUGAAACAAUUUGGAGAAGCGCAGAUCGGAAGAGCACACGU
B20: target 2 MT 5'PFS AAA 3'PFS CUG (mixed)
RNA 1: CACCCGUGCAAAAUUGCAGGGGUCUAAAACCUUCUCCAAAUUGUUUCAUCCU
RNA 2: GGGAAUGGAUCCACAUCUACGAAUUCAAAAGGAUGAAACAAUUUGGAGAAGCUGAGAUCGGAAGAGCACACGU
B21: target 2 MT 5'PFS CGC 3'PFS UAG (mixed)
RNA 1: CACCCGUGCAAAAUUGCAGGGGUCUAAAACCUUCUCCAAAUUGUUUCAUCCU
RNA 2: GGGAAUGGAUCCACAUCUACGAAUUCCGCAGGAUGAAACAAUUUGGAGAAGUAGAGAUCGGAAGAGCACACGU
B22: target 2 MT 5'PFS UGC 3'PFS CAG (mixed)
RNA 1: CACCCGUGCAAAAUUGCAGGGGUCUAAAACCUUCUCCAAAUUGUUUCAUCCU
RNA 2: GGGAAUGGAUCCACAUCUACGAAUUCUGCAGGAUGAAACAAUUUGGAGAAGCAGAGAUCGGAAGAGCACACGU
B23: target 2 MT 5'PFS UGC 3'PFS UAA (mixed)
RNA 1: CACCCGUGCAAAAUUGCAGGGGUCUAAAACCUUCUCCAAAUUGUUUCAUCCU
RNA 2: GGGAAUGGAUCCACAUCUACGAAUUCUGCAGGAUGAAACAAUUUGGAGAAGUAAAGAUCGGAAGAGCACACGU
B24: target 2 MT 5'PFS UGC 3'PFS CAU (mixed)
RNA 1: CACCCGUGCAAAAUUGCAGGGGUCUAAAACCUUCUCCAAAUUGUUUCAUCCU
RNA 2: GGGAAUGGAUCCACAUCUACGAAUUCUGCAGGAUGAAACAAUUUGGAGAAGCAUAGAUCGGAAGAGCACACGU
B25: target 2 MT 5'PFS GAG 3'PFS AGG (mixed)
RNA 1: CACCCGUGCAAAAUUGCAGGGGUCUAAAACCUUCUCCAAAUUGUUUCAUCCU
RNA 2: GGGAAUGGAUCCACAUCUACGAAUUCGAGAGGAUGAAACAAUUUGGAGAAGAGGAGAUCGGAAGAGCACACGU
B26: target 2 MT 5'PFS UGC 3'PFS UAC (mixed)
RNA 1: CACCCGUGCAAAAUUGCAGGGGUCUAAAACCUUCUCCAAAUUGUUUCAUCCU
RNA 2: GGGAAUGGAUCCACAUCUACGAAUUCUGCAGGAUGAAACAAUUUGGAGAAGUACAGAUCGGAAGAGCACACGU
B27: target 2 MT 5'PFS UGC 3'PFS UAU (mixed)
RNA 1: CACCCGUGCAAAAUUGCAGGGGUCUAAAACCUUCUCCAAAUUGUUUCAUCCU
RNA 2: GGGAAUGGAUCCACAUCUACGAAUUCUGCAGGAUGAAACAAUUUGGAGAAGUAUAGAUCGGAAGAGCACACGU

This data set addresses T1, EsCas13d, nuclease-dead (Eubacterium siraeum, UniProt B0MS50, R295A;H300A;R849A;H854A).
T1 sequence: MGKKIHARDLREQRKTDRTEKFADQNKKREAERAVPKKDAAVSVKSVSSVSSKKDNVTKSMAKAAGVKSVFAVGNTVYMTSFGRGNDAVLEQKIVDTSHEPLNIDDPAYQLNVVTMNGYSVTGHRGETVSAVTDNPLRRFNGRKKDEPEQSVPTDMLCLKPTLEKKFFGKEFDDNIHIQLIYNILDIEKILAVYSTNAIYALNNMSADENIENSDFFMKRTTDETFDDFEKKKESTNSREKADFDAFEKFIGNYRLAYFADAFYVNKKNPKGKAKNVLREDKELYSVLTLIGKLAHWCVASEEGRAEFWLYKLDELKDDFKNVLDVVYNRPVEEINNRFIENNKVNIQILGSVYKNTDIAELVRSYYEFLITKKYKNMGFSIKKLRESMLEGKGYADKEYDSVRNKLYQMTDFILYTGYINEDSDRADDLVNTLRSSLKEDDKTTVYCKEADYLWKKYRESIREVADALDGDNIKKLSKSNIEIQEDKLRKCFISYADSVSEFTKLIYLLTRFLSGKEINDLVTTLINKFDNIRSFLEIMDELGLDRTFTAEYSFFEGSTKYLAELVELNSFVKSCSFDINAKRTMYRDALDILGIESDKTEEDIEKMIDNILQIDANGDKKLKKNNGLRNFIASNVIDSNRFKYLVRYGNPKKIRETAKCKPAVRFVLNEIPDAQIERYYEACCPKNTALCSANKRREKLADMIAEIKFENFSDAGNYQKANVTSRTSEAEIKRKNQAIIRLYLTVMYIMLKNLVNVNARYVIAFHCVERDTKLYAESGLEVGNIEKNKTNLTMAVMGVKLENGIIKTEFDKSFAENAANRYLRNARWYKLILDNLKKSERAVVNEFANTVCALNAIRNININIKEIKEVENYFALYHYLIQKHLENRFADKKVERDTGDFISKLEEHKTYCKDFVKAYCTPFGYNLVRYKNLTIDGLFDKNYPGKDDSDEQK
In words: crRNA (strand 1, pre-loaded); Mg2+; 40 mM Tris-HCl pH 7.5, 150 mM NaCl, 6 mM MgCl2, 1 mM DTT, 0.1% Tween-20, 0.2 mg/ml BSA; 25 C; 10 min per concentration, then washed. The following applies: tags: His6-TwinStrep-SUMO cleaved; N-terminal SNAP kept (SNAP-Surface 488); label: 3' end held by stalled T7 RNA polymerase.
Usually Kd stands for the constant that tells how readily two partners part at equilibrium. As to B1, binding was put at a Kd of 36 ± 4 nM.
The molecule B2 displayed a Kd of 26.2 ± 1.6 nM.
Under B3 stands 13.3 ± 2.6 nM.
Molecule B4 displayed a Kd of 12.2 ± 0.8 nM.
In turn, B5 showed a Kd of 4.1 ± 0.7 nM.
Regarding B6, the Kd came out at 7.2 ± 0.8 nM.
In turn, B7 returned a Kd of 45 ± 14 nM. Compared with the last molecule, the Kd is about 6.2-fold higher.
In turn, B8 displayed a Kd of 15.1 ± 2.8 nM.
B9 showed a Kd of 7 ± 0.7 nM.
B10 showed a Kd of 9.6 ± 1.2 nM.
As to B11, the Kd is 6.3 ± 1 nM.
Turning to B12, the Kd was 5.6 ± 0.5 nM.
In turn, B13 showed a Kd of 18.1 ± 3 nM.
Under B14 stands 26 ± 6 nM; under B15, 12.8 ± 1.4 nM; under B16, 7 ± 1.3 nM.
In turn, B17 showed a Kd of 14.2 ± 1.4 nM.
Under B18 stands 13 ± 2.3 nM; under B19, 8.5 ± 1.1 nM; under B20, 5.5 ± 1.1 nM.
B21: the affinity, expressed as Kd, was 3.3 ± 0.5 nM.
Turning to B22, binding was put at a Kd of 16.2 ± 2.2 nM.
Under B23 stands 17 ± 6 nM; under B24, 25 ± 8 nM.
B25 yielded a Kd of 5.5 ± 0.4 nM.
Turning to B26, the affinity, expressed as Kd, was 21 ± 4 nM. This Kd lies about 3.8-fold higher than the previous one.
Under B27 stands 14.3 ± 2.6 nM.
